In this assay the target is UDP-GlcNAc 4-epimerase (Gne) from Campylobacter jejuni (Campylobacter jejuni). Briefly: SEC-MALLS.

What is called stoichiometry N is a count of units in the complex or per binding partner.

“UDP-GlcNAc 4-epimerase (Gne) from Campylobacter jejuni (enzyme)” returned a stoichiometry N of 2.

For the origin of these results see article doi:10.1101/2020.09.22.308395.
